Changes are numbered by the printed parent chain.

Consider twelve molecules from PMC10954455.

The labels stand for the following.
B1: CSTB G4 in dsDNA (mixed)
DNA 1: CCTGAAGCAGACAGCTAGTGAATTCGGGGCGGGGCGCGGGGCGGGGTACTTGCGTATAACTGTTCCATAGT
DNA 2: ACTATGGAACAGTTATACGCAAGTATTTTTTTTTTTTTTTTTTTTTGAATTCACTAGCTGTCTGCTTCAGG
B2: Tel G4 in dsDNA (mixed)
DNA 1: CCTGAAGCAGACAGCTAGTGAATTCGGGTTAGGGTTAGGGTTAGGGTACTTGCGTATAACTGTTCCATAGT
DNA 2: B1 DNA 2
B3: B4-dx2 G4 in dsDNA (mixed)
DNA 1: CCTGAAGCAGACAGCTAGTGAATTCGGATCTGAGAATCAGATGTGGGTGGGTGGGTACTTGCGTATAACTGTTCCATAGT
DNA 2: B1 DNA 2
B4: non-G4 dsDNA (dsDNA)
DNA 1: CCTGAAGCAGACAGCTAGTGAATTCAAAAAAAAAAAAAAAAAAAAATACTTGCGTATAACTGTTCCATAGT
DNA 2: B1 DNA 2
B5: BCL-2 G4 in dsDNA (mixed)
DNA 1: CCTGAAGCAGACAGCTAGTGAATTCGGGCGCGGGAGGAAGGGGGCGGGTACTTGCGTATAACTGTTCCATAGT
DNA 2: B1 DNA 2
B6: MYOG in dsDNA (no G4 formed) (mixed)
DNA 1: CCTGAAGCAGACAGCTAGTGAATTCGGGTGGGCTGGGAGGTACTTGCGTATAACTGTTCCATAGT
DNA 2: B1 DNA 2
B7: T4B1 G4 in dsDNA (mixed)
DNA 1: CCTGAAGCAGACAGCTAGTGAATTCGTTTTGGTGGGTGGGTGGGTACTTGCGTATAACTGTTCCATAGT
DNA 2: B1 DNA 2
B8: PDGFRB G4 in dsDNA (mixed)
DNA 1: B6 DNA 1 with T29G, T34G, G36C, A38G
DNA 2: B1 DNA 2
B9: C9orf72 G4 in dsDNA (mixed)
DNA 1: CCTGAAGCAGACAGCTAGTGAATTCGGGGCCGGGGCCGGGGCCGGGGTACTTGCGTATAACTGTTCCATAGT
DNA 2: B1 DNA 2
B10: C-Kit G4 in dsDNA (mixed)
DNA 1: B7 DNA 1 with T27G, T28G, T29C, T30G, T33C, G35C, T37A, T41A
DNA 2: B1 DNA 2
B11: MYC G4 in dsDNA (mixed)
DNA 1: CCTGAAGCAGACAGCTAGTGAATTCGGGTGGGGAGGGTGGGGTACTTGCGTATAACTGTTCCATAGT
DNA 2: B1 DNA 2
B12: T1B1 G4 in dsDNA (mixed)
DNA 1: CCTGAAGCAGACAGCTAGTGAATTCGTGGTGGGTGGGTGGGTACTTGCGTATAACTGTTCCATAGT
DNA 2: B1 DNA 2

This data set deals with Human DNA topoisomerase 1 (Top1) (Homo sapiens, UniProt P11387 1-765). As to the kind of experiment: EMSA. Background: In EMSA bound probe runs differently from free probe, usually more slowly.
Chain of Human DNA topoisomerase 1 (Top1) (P11387 whole entry): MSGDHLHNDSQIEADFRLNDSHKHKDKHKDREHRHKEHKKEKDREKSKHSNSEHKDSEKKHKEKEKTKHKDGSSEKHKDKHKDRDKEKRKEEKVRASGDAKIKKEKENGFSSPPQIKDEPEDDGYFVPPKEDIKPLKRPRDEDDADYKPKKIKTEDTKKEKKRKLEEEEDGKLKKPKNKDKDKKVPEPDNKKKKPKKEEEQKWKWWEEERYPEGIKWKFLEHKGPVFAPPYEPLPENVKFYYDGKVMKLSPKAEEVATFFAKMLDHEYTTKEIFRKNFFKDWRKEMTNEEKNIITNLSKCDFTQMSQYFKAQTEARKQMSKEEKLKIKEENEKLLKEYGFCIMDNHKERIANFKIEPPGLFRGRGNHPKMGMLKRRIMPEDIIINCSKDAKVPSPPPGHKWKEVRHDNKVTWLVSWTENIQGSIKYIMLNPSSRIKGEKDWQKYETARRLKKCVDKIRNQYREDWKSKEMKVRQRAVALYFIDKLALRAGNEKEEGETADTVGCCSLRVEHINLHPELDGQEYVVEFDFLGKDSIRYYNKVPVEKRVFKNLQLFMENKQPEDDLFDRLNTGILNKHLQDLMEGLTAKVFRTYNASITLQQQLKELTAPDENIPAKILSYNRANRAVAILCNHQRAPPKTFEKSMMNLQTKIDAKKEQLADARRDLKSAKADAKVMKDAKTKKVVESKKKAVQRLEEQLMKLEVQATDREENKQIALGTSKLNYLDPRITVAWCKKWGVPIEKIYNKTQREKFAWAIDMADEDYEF
As to B1, the binding result is recorded as “binds”.

Consider B2, for which the binding result was “binds”.

Take B3: the binding result is on record as “binds”.

B4: the binding result is on record as “no binding”.

For B5, the binding result was “binds”.

Take B6: the binding result is recorded as “no binding”.

For the molecule B7, the binding result is “binds”.

B8: the binding result is recorded as “binds”.

Consider B9, for which the binding result is recorded as “binds”.

On to B10, for which the binding result was “binds”.

For B11, the binding result is “binds”.

In the case of B12, the binding result is on record as “binds”.
